# B1: CspRecT: RecT SSAP (UniParc ID: UPI0001837D7F) from a phage of Collinsella stercoris (protein)
# chain: MNQIVKFTDDSGLAVQVTPDDVRRYICENATEKEVGLFLQLCQTQRLNPFVKDAYLVKYGGAPASMITSYQVFNRRACRDANYDGIKSGVVVLRDGDVVHKRGAACYKKAGEELIGGWAEVRFKDGRETAYAEVALDDYSTGKSNWAKMPGVMIEKCAKAAAWRLAFPDTFQGMYAAEEMDQAQQPEQVRAQAEQPVDLQPIRELFKPYCEHFGITPAEGMTAVCGAVGAEGMHSMTEQQARRARAWMEEEMAAPAVEAEYEVVDEGEVF
# modifications: Collinsella stercoris DSM 13279
# How the values were obtained:
# [1] = system: Citrobacter freundii ATCC 8090; experiment: Recombineering efficiency by LacZ screening; format: cell-based; conditions: pORTMAGE-based constructs
# Text: (§1) To test the activity of PapRecT and CspRecT in these three organisms, the broad-host-range pORTMAGE system (Nyerges et al., Proc. Natl. Acad. Sci. U.S.A. 113, 2502-2507 (2016)) was built on as described above. For experiments in E. coli PapRecT or CspRecT was subcloned in place of Redβ into pORTMAGE311B (Szili et al., Antimicrob. Agents Chemother. AAC.00207-19 (2019) doi:10.1128/AAC.00207-19) (FIGS. 10A-10B; Addgene accession: #120418), which transiently disrupts MMR with EcMutL_E32K, and whose RSF1010 origin of replication and m-toluic-acid-based expression system allows the plasmid to be deployed over a broad range of bacterial hosts (Honda et al., Proc. Natl. Acad. Sci. U.S.A. 88, 179-183 (1991); Gawin et al., Microb. Biotechnol. 10, 702 (2017)). These same pORTMAGE-based constructs were used for testing in C. freundii and K. pneumoniae. […]
# (§2) Oligos were designed to introduce I) premature STOP codons into lacZ for E. coli, K. pneumoniae, and C. freundii, or II) RpsL K43→R; GyrA T83→I; ParC S83→L; RpoB D521→V, or a premature STOP codon into nfxB for P. aeruginosa. […] After recovery overnight, cells were plated at empirically-determined dilutions to a density of 200-500 colonies per plate. […] In all cases, allelic-replacement frequencies were calculated by dividing the number of recombinant CFUs by the number of total CFUs. […]
# [2] = system: Klebsiella pneumoniae ATCC 10031; experiment: Recombineering efficiency by LacZ screening; format: cell-based; conditions: pORTMAGE-based constructs
# Text: as §1, §2
molecule,measurement,setting,value
B1,Editing performance in C. freundii,[1],optimal choice of protein
same,Editing performance in K. pneumoniae,[2],optimal choice of protein

# From patent US20220228157A1, “GENE EDITING IN DIVERSE BACTERIA” (priority 2019, published 2022)
